# System: Saccharomyces cerevisiae
# Test: transcriptional activation domain activity (GFP:mCherry ratio, weighted mean of sorted bins, harmonized to initial dataset scale) (arbitrary fluorescence ratio units); higher = stronger transcriptional activation
# Settings: beta-estradiol 1 µM; induction time 4 h
# Summary of the method: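 Barcoded tiles were sequenced after cells were sorted into 8 bins by GFP:mCherry ratio. Before sorting, cultures had been diluted 1:5 into SC with 1 uM beta-estradiol and held for 4 hours at 30 °C. The tiles were fused to an estradiol-inducible synthetic transcription factor and integrated at URA3 in yeast diploids carrying a GFP reporter. Activation activity is the read-weighted mean of bin median fluorescence, averaged over barcodes and linearly mapped onto the initial dataset scale, and tiles under 50 reads were left out.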
row,Sequence,transcriptional activation domain activity
1,MLLALRMFEELKLFFLSFVFLSQFFFFIYLFLVHYCKWRMVTLPYSVFTFFLV,44000
2,QDNLNIEDKEEMSPNIEIKNEQNMTDSNDILGVFDQLDAQLFGKYLPLNYPSE,81700
3,EYAEWLLQPEQNNGTWVADVLWPAIDLDLEWIALNWNQSSWDLWWPPVWAGSF,107000
4,KIHLVNMAQVVVIFLHRILYGIIPLFEITTCAYFPLLVSLWHLAYILFYVVMF,81600
5,MGLWARFFCFVIVCFQITFLYCLFSFSPSFLDLQKTQPLFFTFFFFCSFPSFP,44200
6,WYGFLVTWGLLVLFIICFYFFISVSCCAFCVLFSSTWSFGRLFLLTFPLILLL,41700
7,PKSRPKKAKEEAVATGALGATGVVPEKRKRGRPRKIQPPIDGVALVAPPVAAP,51700
8,NPPIPVIPADVDRSKIPKCKHIGSRLRHFDDDLGYYLVQVCINLLQRIWKIFY,37200
9,MLRTWVLLLLVGLLGVFVRADDEPASEEPKSGGLSLSRLSQLVTSGVTGARPP,39300
10,ERRRKDQRKREKEEEERCHQEGREKKGEEHRREGDEERGRKEQETHASQEANG,29600
11,DAKSGTSGGLFGSAAPASSTAPNSSGAATAGASSTTTTAPAGGLFGAKPAAAS,< 6570
12,KTPAAANKAGGGGAGGKSAGGRGKTQRARGGRVKQATTQKQTATPKQQQTAAK,24000
13,MQGEETIASKTNKPRQRRAHTRSRTGCSECRNRRVRCDEQKPQCKNCINSQRI,24100
14,IINHLIILYLNRHICVMGLLHVPTFLEYYNSLDDPLNDAMVLAVCIDALVNLR,42700
15,PMAVTLIERNVILGLRNAKTTDQLNTLINSLPFNNTSMLFLRLAMTKLSVIWS,59900
16,MSYLQMFTLIEGKFQKQMLFLFFFLLCNLLSFFYIYIYVLLTLIFFTTTSIHL,56700
17,SGEATATPEKSKTPRKRKTKAEGDSADNGDADGSPKKKAGGRKKKADVVKEEM,23600
18,SIMHALRQFCTEMRATQFQDCRLRTVQLLLRLLPSANLSLFVYLLAFLSQIVQ,36200
19,SHALQNRRASHASSAGSGSRRGSREETGEHHHKKHHHHKKHHHRRHSHGGGGG,54500
20,MPAVKKDAPSQRQQDKESKRARGALSCAECRRLKLKCDKTVPCSSCKRRGCSA,34600
21,LLLLYGLTWAFNLIACMLTSTNNGNMVSCILTNFNCIIVYTITKIILYLYFVE,43200

row,Sequence,transcriptional activation domain activity
1,KKGRRKENGEGGEEKGKGAGGRGEGEEAGRRSRIKGVGGKRRGAGRRRGRREG,17100
2,GGEGEKKKREGKEGREKRGGRRKKGRGKKGRGREGRKKGKRKREGKGKKGEKR,24600
3,DLPVRLVELPNLLVTDIQQNAYLLDSALRVKLDAKGRAFLDSILLRVLQWLWT,48200
4,QRNDARLIPGIKYLQLVLGRVRCCREIIAILARNGHRLPKGMLPTLVRLWLLM,35800
5,MAKKASGSAEKKGGDKADKKGKAKAKADDSDVEDKGSKGKGALKAATAVNVRH,9660
6,MLQHSWCFIFRLFDPLFFFFFFFFSTWNAIVGRWVFSLSFEPFFVRLLHLILY,37700
7,LLFQSGVLRGYGGLLGFWIYLLLSSSFLLHLFYCCYIVLYLFVFVSWLLACLL,51700
8,DGAGAKDDEEDAGRMRTRGNGKRKGKGRAQDEAEAEAERVRAAEAFARRGAAK,43300
9,NVSDAPRIEPLPSLNDDDIEKILQPNDIFTTDRTDASTTSSTAIEDIINPSLD,61300
10,LLLHYKHEEFVGHEETDFVVMGFTKLLLCCISSLKSFKKPLNAGPLIERIFRK,84700
11,RARRNSDSSIIDKAAQEKEDRRRRERRREREREEKDRDGKSSSTRKVRKPQGL,26200
12,SPTLSHCTDYRTPALAYNILITCSLFLLFRPKPLILFWCLVCIGFWHVALFSQ,52500
13,AKSNKRRRASAPSSNTFKGSKRSASNASSQSKASNSNRVIKRARRASSASTKK,20900
14,GAAATPAKPLGFGATSTATTGGLFGNTGAAPAAGGGLFGATATSHQLLVLVAV,85800
15,DVGNSVWHVDCCSPYVNGGSGWGFFNAILGWTNSATYGSVISYNLYWLFVIAV,51100
16,PFAFLLLLLFPLVLFLPALLLLFLPLLPLLPLLLWILWIQTLQSLFSFPDISD,46900
17,MFTLPSYSLFLSVHSFLIYPLPSCSFFFRISSPSIFTLSSCLSFPPVCPSLLF,71700
18,TDDAPRVKTKAEKEKEKKEKEKQRKKEMAAKKKANAPAKQEAAKPAETKAAAA,41100
19,VKPRPLPLPVLIAKALREKGLVYFFRSVRVSGSGTAEVVRGKWYMNFLPTLAR,73200
20,FYSRVASSTLLFFWLTSLISNGIIIRTNYLLDQHHSRLLLFALLVVQELLCVL,68600
21,GRKILNVFALVFFFINLFLFCLFLALTMCRYAMFPRLWGLMLRDPVQSLYLGC,46700

row,Sequence,transcriptional activation domain activity
1,ISLVYGVRLAIRSSIFVTVRTHLARSIRYQSGLRAKQPIPTRLFLLYFLQLKY,56900
2,MIDILFFVLFHFFDVLFFSLFCLFLCIILFSSLTFLIYYFFFFFLFFPFFGLF,36500
3,EYVRETTPEKEGGGRRRQKREDVTSGEEDAPDAVEKGKKRKRSAAGGAGAGKK,48300
4,MVLIFFLYWLWFMWGLYLFFFSFFSRAKYWLLVLVVFFFGWGFYIVWSFSLHD,57500
5,MTLTFWFFLPLLDILSGLKFEFLPMLVFYFYFFPFASFCRFEALDIWTWILII,48100
6,VLHVLILHLPCCPSPNFLLAPDTTLPLSTLLWYEFSRTLFPVLLFYLPAFLIS,72100
7,KLHQQAKSDFDELQESIPHQVGFSTPQLTAQQLIENAIESGVVDLETLDLPPF,112000
8,SGGAPRGRGRGRREEKGRGRGRERGGRGRGGDRGRGRGRGRGVGGGSMGGGGG,15900
9,MTCCLNLFCLLLINLIFFVCACCLLVFSLLAIQNKLPECILLPINIFKMLTIL,52900
10,SSSSASSSSASARGRKTQAARSTKKRKRRDAVSSANKDEDNDSDASNDEDEDE,27500
11,KEEDEAPAPRKARGKAKKAIVEEEEAPESEVEAPEPKAKKGRGRKAAVKKVVS,< 6570
12,FKVLMQVMPFVLHGLVDDKLRTLWRMLGELGAFLWMPLIKDKEVYLRKLAVII,48700
13,KAPTAPRKAGIAAKAGEKEAAAGAAAKVAEVTEAAARRGRGRPKKAQEELTAS,50500
14,TGAGLFFFFHLFLCVWGIEILLVALDFPFFFFWFPYCAWAVSVRLGFGMIPKI,66900
15,EAPVEAPIEVPVEAPVEAPVEAEKPAEEIETPAEAVVEKPAEETEKPAEAVVE,31900
16,SATIFSPFDTHLLEPVPSSSSESSAEVMFHGKQMKNFLIDINSFTNQQQQAQD,38700
17,GSYTSAARGGKAVQEAIRAMIERKGLELRQKQRKLRQDVVIVMHHATALPGTS,56300
18,CFILLHLVLSFFALSCLYCLVLLLLPLPLILLFLLSSPWKFVPVHLQRHFVVV,68600
19,NQGSGSKTGGEVDLVGEREEVMRSVHDSRAQLSEDYEYERRNISLAVPLGRGQ,41000
20,RRWTRSKWLLLCTYGMMFCIGLTMLLGCLLTWFRGYLRAEVITVGFKRILIIA,47500
21,TLPFQIFMICDLTVPLKLNGFLVNGSLNLLGIMMVRVTFSCLGLAQLFQLIIC,62100

row,Sequence,transcriptional activation domain activity
1,RRDVTLMGGLCLHTIQGAYLAACAYFVVPFSLVVSLGFEALLLLFCFIFIFIF,50400
2,LRLVYCQVKKKKYKSINRYVAIHELSYNVMIWRFLAIYHSSQRLKWSIFLLSF,42100
3,DESPDADATKREKKKKKQKKRKVLQKEEEEEAEAARDKRERKKRKKSKSDIRR,39200
4,PKDGAKEEKKSSKSRGEEKRSRSDRKEREREEKSSKGSASDKAEQPPKATASS,6730
5,RSSKPSSRFLVLTKQKVYILVTRMVQNAPQTTIERSVGISSISSASVSTLQDD,29600
6,VLCTCVPRQLVEPLVKLRKIHRRLAMTWIAALDYFASYRLVPFIRMIMELESV,44700
7,RGINAPLIQIPLYNNDPWIQTTISDDYLLPPGWFDILFPTNFDLLKDIYLTAF,60600
8,IPIKYNTAIKRHQHSTELPSSVKCGFCNDNTTCVCKELETDHRKSDDGVATEQ,39200
9,FHIGIYARVLMCLLLDKKARPLPEDMKLWVDLLRWLKGGSPGGALSFFTYMEL,30900
10,SAFGSSANAPTSGGFGAFGQPVAAAATTSAFGSTTPFGAAAPSPAAPAAAASP,25700
11,GEKEASGENTSNGTTATTVKPSSSSDEEKAAKKENKEAATTTNNGIKNSATAS,30300
12,LVYLARSLFFSLLFKRLYILYFLEVCIWHIFGFFFYLITLCANLVMPLLLCSV,57600
13,SSNGEEQSINNKNDIDDNSAYRRNNFRNSSNSGSHTFQLSDLDLDVDMRMDSA,41100
14,SHDTFPLRPILVKLLCHAMLMKGVDPVSIIEKQPMTYGFVADILLPLVLDLPS,62200
15,PRQPRERKPRAEGEEGEHVEGQQEAGERRRERRPRKPRNKSAGGAGAGAEGAA,17100
16,MSGQLPAGAPRASPADASPTGPRAPTSSRPACLSCHTHKKRCVWKSAAPGTPC,69400
17,RKAKATAKEGDKEKSDGGEKLKKASKRSDGEDDKAGQRSSGNKKSRAKKRAED,16400
18,ILDLTVRFWGNVKLLRRLWNGIYHFASYHMSSMTRAKVTIVSDLLLGTYILKR,70700
19,PYLSRLGEKNILADLMEFYRCKESWSLQSGLVFIRRIILQQVPIDVRILCAFL,35500
20,YLVRHRGEIFDNFQARKEQLLCPVYIRWLRLIWQILLSCCHVIFKSHPWMVFM,57700

# Source: the supplement of paper PMC12636428
